The series concerns the molecule itself. Description: SEC; gel filtration of the purified protein on Superdex 200 HR 10/30 in 25 mM Tris-HCl pH 8.0, 100 mM NaCl, 0.1 mM EDTA; mass from a calibration plot of standards. Background: Size exclusion chromatography separates by hydrodynamic size, large species first.

B1: GalU (UDP-glucose pyrophosphorylase) from Escherichia coli (enzyme, Escherichia coli K-12, UniProt P0AEP3 1-302, looked up)
chain: MAAINTKVKKAVIPVAGLGTRMLPATKAIPKEMLPLVDKPLIQYVVNECIAAGITEIVLVTHSSKNSIENHFDTSFELEAMLEKRVKRQLLDEVQSICPPHVTIMQVRQGLAKGLGHAVLCAHPVVGDEPVAVILPDVILDEYESDLSQDNLAEMIRRFDETGHSQIMVEPVADVTAYGVVDCKGVELAPGESVPMVGVVEKPKADVAPSNLAIVGRYVLSADIWPLLAKTPPGAGDEIQLTDAIDMLIEKETVEAYHMKGKSHDCGNKLGYMQAFVEYGIRHNTLGTEFKAWLEEEMGIKK
notes: GalU, E. coli K-12, gene galU (909 bp) amplified from genomic DNA, codes for 302 amino acids; expressed from pET28c as an untagged protein; also called UDP-Glc PPase; UTP:glucose-1-phosphate uridylyltransferase; source: E. coli BL21 Star (DE3), purified (DEAE-Sepharose)
With B1, the stoichiometry N (in general, the number of molecules, sites or subunits per partner or assembly) was 4.

B2: GalU_(T20M/R21H) (enzyme, Escherichia coli K-12, UniProt P0AEP3 1-302, looked up)
chain: MAAINTKVKKAVIPVAGLGMHMLPATKAIPKEMLPLVDKPLIQYVVNECIAAGITEIVLVTHSSKNSIENHFDTSFELEAMLEKRVKRQLLDEVQSICPPHVTIMQVRQGLAKGLGHAVLCAHPVVGDEPVAVILPDVILDEYESDLSQDNLAEMIRRFDETGHSQIMVEPVADVTAYGVVDCKGVELAPGESVPMVGVVEKPKADVAPSNLAIVGRYVLSADIWPLLAKTPPGAGDEIQLTDAIDMLIEKETVEAYHMKGKSHDCGNKLGYMQAFVEYGIRHNTLGTEFKAWLEEEMGIKK
notes: GalU, E. coli K-12, 302 amino acids, untagged, with T20M and R21H; Mutagenesis on the plasmid of the wild-type enzyme; also called GalU T20M/R21H double mutant; source: E. coli BL21 Star (DE3), purified (DEAE-Sepharose)
As to B2, the “stoichiometry N” value is 4.

B3: GalU_(K202A) (enzyme, Escherichia coli K-12, UniProt P0AEP3 1-302, looked up)
chain: MAAINTKVKKAVIPVAGLGTRMLPATKAIPKEMLPLVDKPLIQYVVNECIAAGITEIVLVTHSSKNSIENHFDTSFELEAMLEKRVKRQLLDEVQSICPPHVTIMQVRQGLAKGLGHAVLCAHPVVGDEPVAVILPDVILDEYESDLSQDNLAEMIRRFDETGHSQIMVEPVADVTAYGVVDCKGVELAPGESVPMVGVVEAPKADVAPSNLAIVGRYVLSADIWPLLAKTPPGAGDEIQLTDAIDMLIEKETVEAYHMKGKSHDCGNKLGYMQAFVEYGIRHNTLGTEFKAWLEEEMGIKK
notes: GalU, E. coli K-12, 302 amino acids, untagged, with K202A; Mutagenesis on the plasmid of the wild-type enzyme; source: E. coli BL21 Star (DE3), purified (DEAE-Sepharose)
With B3, the “stoichiometry N” value worked out at 4.
